Measurements published in PMC4416025, “Characterization of Hydrogen Metabolism in the Multicellular Green Alga Volvox carteri” (PLoS ONE, 2015).

Experiments:
[1] = test system: T1, C[n+]1ccc(-c2cc[n+](C)cc2)cc1; assay: H2 evolution assay, gas chromatography; type: biochemical, Volvox carteri; conditions: electron donor, methyl viologen reduced in situ by sodium dithionite; anaerobic
T1 construct: cDNA-derived, N-terminal 6xHis tag with GGG linker; sense cloning primer encodes tag then KCTSAV (no start Met, N-terminus probably truncated); maturation possibly incomplete

[2] = test system: T2, C[n+]1ccc(-c2cc[n+](C)cc2)cc1; assay: H2 evolution assay, gas chromatography; type: biochemical, Volvox carteri; conditions: electron donor, methyl viologen reduced in situ by sodium dithionite; anaerobic
T2 construct: cDNA-derived, N-terminal 6xHis tag with GGG linker; sense cloning primer encodes tag then MDELDKP; tag removal not mentioned

Row | Substance | Km [1] | Km [2]
1 | HYDA2 (Volvox carteri f. nagariensis) | 2820 µM | 
2 | HYDA1 (Volvox carteri f. nagariensis) |  | 2760 µM
